Some targets named below: SHI ALλ liver extract; TAL ALκ liver extract; rVλ6Wil fibrils.
What all share (experiment): EuLISA
Assay [1] concerns the target KEN hATTR extract (human) (UniProt P02766).
Assay [2] addresses Per125 wtATTR extract (human) (UniProt P02766).

For the substance chimeric antibody c11-1F4, in assay [1], the LogEC50 was -1.36 -log(M) and the Max turned out to be 19700.
The EC50 is the concentration that produces a half-maximal response. hIgG1 (antibody): the LogEC50 in assay [2] is 7.92 -log(M); with SHI ALλ liver extract it was 7.88 -log(M); in assay [1] it was 9.06 -log(M); in the assay with TAL ALκ liver extract, 3 -log(M); with rVλ6Wil fibrils, 5.89 -log(M). Further, the Max in assay [2] is 8.38; with SHI ALλ liver extract it was 2.5; in assay [1], -0.8; in the assay with TAL ALκ liver extract it was 2220; in the assay with rVλ6Wil fibrils it was 39.3. The same substance had an EC50 with rVλ6Wil fibrils of 1.28 µM.
As for m11-1F4 (antibody), in assay [1], the LogEC50 is 2.39 -log(M) and the Max came out at 294000.

The values are drawn from US20230416347A1.
